{
  "source": "paper PMC4734687",
  "about": "“Peptide-Based Optical uPAR Imaging for Surgery: In Vivo Testing of ICG-Glu-Glu-AE105” (PLoS ONE, 2016)",
  "key": {"[1]": {"tested_on": "U87MG human glioblastoma xenograft tumors", "assay": "Optical imaging of U87MG xenograft mice 15 h post injection (tumour to background ratio)", "format": "in vivo, mouse", "conditions": "IVIS Lumina XR, 15 h post i.v. injection of 10 nmol; for Uptake in the tumor (in words): U87MG xenograft mice, n = 5", "protocol": "All animal experiments were performed under a protocol approved by the Animal Research Committee of the Danish Ministry of Justice (2012-15-2934-00064). 5 ×10^6 U87MG cells were suspended in 200 ul PBS and inoculated in both flanks of 6 weeks old nude NMRI female mice (24–28 g; Taconic Europe, Lille Skensved, Denmark). All mice were housed in groups with 12 h light/dark cycle and food and water was available ad libitum. When the tumours reached approx. 500 mm^3 in size the mice were enrolled in the optical imaging protocol.\n(§1) 10 nmol of ICG-Glu-Glu-AE105 or ICG were administered to 5 mice each via tail vein injections. 15 h post injection the mice were anaesthetized with 2% isoflurane a full-body optical scan recorded using the acquisition mode outlined above.\nAfter imaging with IVIS Lumina XR the anesthetized mice were moved to a surgical table and real-time tumor imaging with a Fluobeam®800 NIR-camera was performed (Fluoptics, Grenoble, France). The camera was connected to a standard laptop to allow imaging, adjustments of camera functions and recording of images and video sequences. Fluobeam®800 works with a 800 nm excitation laser optimised for ICG imaging.\nThe TBR values were calculated as tumor-signal divided by background-signal by drawing a ROI over each tumor and place the background ROI in an area with constant background signal. Images from IVIS Lumina XR were processed in the software Living Image, while the images from Fluobeam®800 was processed in ImageJ."}, "nude NMRI mice": {"tested_on": "nude NMRI mice", "assay": "Observation of adverse effects in imaged mice", "format": "in vivo, mouse", "conditions": "10 nmol i.v., nude NMRI mice with U87MG xenografts, n = 5 per group", "protocol": "as §1"}, "[2]": {"biological_target": "Urokinase-type plasminogen activator receptor (uPAR) (human) (UniProt Q03405)", "sequence (Q03405 23-305)": "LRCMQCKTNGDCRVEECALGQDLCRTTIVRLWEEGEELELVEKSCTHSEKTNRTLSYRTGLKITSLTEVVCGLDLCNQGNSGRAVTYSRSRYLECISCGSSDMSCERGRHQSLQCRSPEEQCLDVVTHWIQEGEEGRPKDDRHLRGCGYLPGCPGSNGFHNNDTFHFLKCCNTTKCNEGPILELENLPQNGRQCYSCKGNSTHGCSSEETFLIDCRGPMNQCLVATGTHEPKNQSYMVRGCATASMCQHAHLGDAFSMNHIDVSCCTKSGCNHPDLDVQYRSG"}, "[3]": {"assay": "Plasma stability of ICG-Glu-Glu-AE105 by HPLC", "format": "in vitro ADME", "conditions": "mouse plasma 150 μl, 5 μg in DMSO, 37°C, acetonitrile precipitation, HPLC absorbance area at 780 nm", "protocol": "ICG-AE105 (5 μg in DMSO) was added to 150 μl mouse plasma and the solution was incubated at 37°C for either 0, 1, 5 or 30 minutes. After incubation, acetonitrile (200 μl) was added followed by centrifugation at 3500 rpm for 4 minutes. The supernatant was collected, diluted and passed through a 0.45 μm filter. The filtered solution was analyzed on a Dionex UltiMate 300 HPLC using an Onyx Monolithic column (Phenomenex, 50x4.6 mm) and with a flow of 1.5 ml/min. The HPLC mobile phase was 0.1% TFA in H2O:MeCN 90:10 (A) and 0.1% TFA in H2O:MeCN 10:90 (B) and the gradient program: 0–2 min 10% B, 2–20 min 10–100% B, 20–21 100% B, 21–23 min 100–10%B, 23–30 min 10% B.\nEach plasma sample was analyzed by HPLC and the absorbance area at 780 nm was calculated. This value was compared to the standard sample and the plasma sample at 0 min to calculated the percentage of intact ICG-AE105 recovered in the supernatant (see Table 1)."}, "uPAR": {"biological_target": "uPAR (Homo sapiens, UniProt Q03405)", "assay": "Surface plasmon resonance solution competition of the uPA•uPAR interaction (Biacore3000)", "conditions": "indirect solution competition for uPA binding, purified uPAR, non-linear regression, read-out: IC50 as competitive inhibitor of the uPA•uPAR interaction", "protocol": "The IC50-value for ICG-Glu-GLU-AE105 as competitive inhibitor of the uPA•uPAR interaction was measured by surface plasmon resonance in a Biacore3000 assay platform as previously published. Subsequent fitting to the binding isotherms by non-linear regression provided the IC50-value."}, "[4]": {"assay": "In vitro comparison of fluorescence intensity of ICG and conjugated probe", "format": "physicochemical", "protocol": "The UV-vis absorption spectra were recorded on a Perkin-Elmer Lambda 1050 UV/vis/NIR spectrometer double beam spectrometer using the HBC solvent as baseline. The spectra were recorded in 1 cm path length cuvettes with ICG and ICG-AE105 present in the 10–50 μM range. Excitation and emission spectra and lifetimes were measured using FluoroTime 300 (PicoQuant, Berlin, Germany) system. The spectra were measured through excitation at 725 nm using a Xe-lamp excitation source. The excitation and emission measurements were measured in 1 cm cuvettes at 90° with respect to the excitation light. In the fluorescence measurements the absorbance of the samples were below 0.1 at the maximum of the lowest energy absorption band to avoid inner filter effects. After each fluorescence measurement the absorption spectra were recorded in order to verify that no photobleaching of the sample had occurred during the fluorescence measurement. All excitation and fluorescence spectra were corrected for the wavelength-dependent sensitivity of the detection from 500–900 nm."}, "[5]": {"biological_target": "T1, human uPAR in U87MG tumor tissue sections (Homo sapiens, UniProt Q03405)", "T1 construct": "Ex Vivo histology and fluorescence images of s.c. U87MG tumor tissue sections; from tissue; host or cells: s.c. U87MG human glioblastoma xenograft tumors grown in mice", "T1 sequence (Q03405 23-335)": "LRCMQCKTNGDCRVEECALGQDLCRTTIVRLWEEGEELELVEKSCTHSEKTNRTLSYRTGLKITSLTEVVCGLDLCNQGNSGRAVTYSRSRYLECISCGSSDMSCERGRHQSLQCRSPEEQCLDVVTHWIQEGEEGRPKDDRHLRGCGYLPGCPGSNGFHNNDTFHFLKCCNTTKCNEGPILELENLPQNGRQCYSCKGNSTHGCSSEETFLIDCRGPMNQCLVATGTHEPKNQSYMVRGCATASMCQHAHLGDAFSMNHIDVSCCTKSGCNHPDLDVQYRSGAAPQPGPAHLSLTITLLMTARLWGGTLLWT", "assay": "Ex vivo fluorescent imaging and uPAR immunohistochemistry of tumor sections", "conditions": "4 μm paraffin tumor sections, Odyssey scanner 800 nm, antibody R2 against uPAR", "protocol": "Tissue was formalin fixed in 4% formaldehyde in 24 h and then embedded in paraffin. For all stainings a 4 μm slice tissue were used. Before any staining the sliced tissue were imaged with an Odyssey scanner (LI-COR Biosciences, Lincoln, Nebraska) at 800 nm.\nThe tissue was incubated for one hour at 60° before being deparaffinized. Thereafter, tissue was pre-treated with proteinase K (Dako, Glostrup, Denmark) for 6 min. The staining was performed with the Dako ARK kit, with the antibody R2 [24] against uPAR."}},
  "data": [
    {"compound": "CC1(C)C(/C=C/C=C/C=C/C=C2\\N(CCCCS(=O)(=O)O)c3ccc4ccccc4c3C2(C)C)=[N+](CCCCS(=O)(=O)[O-])c2ccc3ccccc3c21", "note": "[ICG, indocyanine green]", "values": [
      {"measurement": "Tumour to background ratio (TBR)", "setting": "[1]; U87MG s.c. xenograft mice, n = 5 mice (n = 10 tumors), mean", "result": "1.04±0.04"},
      {"measurement": "Uptake in the tumor (in words)", "setting": "[1]", "result": "No uptake"},
      {"measurement": "Adverse effects observed in mice", "setting": "nude NMRI mice", "result": "No adverse effects"}
    ]},
    {"compound": "ICG-Glu-Glu-AE105 (peptide)", "values": [
      {"measurement": "mean decrease of the max fluorescence signal of the xenograft tumours when 6.7 nmol uPA is injected together with 10 nmol probe, against probe alone", "setting": "[2]", "result": 46.8, "unit": "%"}
    ]},
    {"compound": "CC(C)C[C@H](NC(=O)[C@H](Cc1ccc(O)cc1)NC(=O)[C@@H](CCCNC(=N)N)NC(=O)[C@@H](CO)NC(=O)[C@H](Cc1ccccc1)NC(=O)[C@H](CC1CCCCC1)NC(=O)[C@H](CC(=O)O)NC(=O)[C@H](CCC(=O)O)NC(=O)[C@H](CCC(=O)O)NC(=O)CCCCC[N+]1=C(C=CC=CC=CC=C2N(CCCCS(=O)(=O)[O-])c3ccc4ccccc4c3C2(C)C)C(C)(C)c2c1ccc1ccccc21)C(=O)N[C@@H](Cc1c[nH]c2ccccc12)C(=O)N[C@@H](CO)C(=O)O", "note": "[ICG-Glu-Glu-AE105]", "values": [
      {"measurement": "Intact ICG-AE105 recovered from supernatant (%) Compared to standard", "setting": "[3]; 0 min incubation", "result": "97,2%"},
      {"measurement": "Intact ICG-AE105 recovered from supernatant (%) Compared to standard", "setting": "[3]; 1 min incubation", "result": 92.3, "unit": "%"},
      {"measurement": "Intact ICG-AE105 recovered from supernatant (%) Compared to standard", "setting": "[3]; 1 min incubation, listed as ICG-AE105", "result": "92,3%"},
      {"measurement": "remaining at 1 min, 33 µg/mL", "setting": "[3]; 1 min incubation, read-out: Intact ICG-AE105 recovered from supernatant (%) Compared to plasma sample at 0 min", "result": 95, "unit": "%"},
      {"measurement": "Intact ICG-AE105 recovered from supernatant (%) Compared to plasma sample at 0 min", "setting": "[3]; 5 min incubation", "result": "89,3%"},
      {"measurement": "Intact ICG-AE105 recovered from supernatant (%) Compared to standard", "setting": "[3]; 5 min incubation", "result": 86.7, "unit": "%"},
      {"measurement": "Intact ICG-AE105 recovered from supernatant (%) Compared to standard", "setting": "[3]; 5 min incubation, listed as ICG-AE105", "result": "86,7%"},
      {"measurement": "Intact ICG-AE105 recovered from supernatant (%) Compared to plasma sample at 0 min", "setting": "[3]; 30 min incubation", "result": "84,1%"},
      {"measurement": "Intact ICG-AE105 recovered from supernatant (%) Compared to standard", "setting": "[3]; 30 min incubation", "result": 81.7, "unit": "%"},
      {"measurement": "Intact ICG-AE105 recovered from supernatant (%) Compared to standard", "setting": "[3]; 30 min incubation, listed as ICG-AE105", "result": "81,7%"},
      {"measurement": "Uptake in the tumor (in words)", "setting": "[1]", "result": "high uptake"},
      {"measurement": "IC50", "setting": "uPAR", "result": 134, "unit": "nM"},
      {"measurement": "Decrease in fluorescence intensity of conjugated probe compared with ICG", "setting": "[4]", "result": 2, "unit": "fold"},
      {"measurement": "Adverse effects observed in mice", "setting": "nude NMRI mice", "result": "No adverse effects"},
      {"measurement": "Co-localization of probe fluorescence with uPAR immunohistochemistry staining", "setting": "[5]", "result": "co-localization of the uPAR staining and the fluorescent probe signal was observed"}
    ]}
  ]
}
